experiment: yeast display, Sf9 membrane polyspecificity reagent, FACS + sequencing; frameworks hold sequencing errors
Summary of the method: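 In a synthetic yeast display library (Saccharomyces cerevisiae BJ5465), nanobody expression was induced with galactose for 36–48 hours. FACS gates were set low and high (top ~1%) using anti-HA fluorescence for expression and streptavidin fluorescence for binding of the Sf9 membrane reagent. Each polyreactivity label is drawn from the gate of origin.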

| Sequence | polyreactivity (PSR sort gate) |
| --- | --- |
| QVQLVESVGGLVQAGGSLRLSCAASGRIFFYYGRGWYRQAPGKERELVAAITKRSSSTYYADSVKGRFTISRDNAKNTVYLQMNSLKPEDTAVYYCNAYPYRYVRRMDYWGQGTQVTVSS | high polyreactivity |
| QVQLVESVGGLVQAGGSLRLSCAASGRIFGWYAMGWYRQAPGKERELVAAITSGGTTYYADSVKGRFTISRDNAKNTVYLQMNSLKPEDTAVYYCAKYHWRLSFSRYPYDYWGQGTQVTVSS | high polyreactivity |
| QVQLVESVGGLVQAGGSLRLSCAASGRIFNYNAMGWYRQAPGKERELVAAITSSGDSTNYADSVKGRFTISRDNAKNTVYLQMNSLKPEDTAVYYCNASSPYDYDWGQGTQVTVSS | low polyreactivity |
| QVQLVESVGGLVQAGGSLRLSCAASGRIFVYYAMGWYRQAPGKERELVAAINSSGGRTYYADSVKGRVTISRDNAKNTVSLQMNSLQPEDTAVYYCAAVYRSWTSSNGRNYWGQGTQVTVAS | high polyreactivity |
| QVQLVESVGGLVQAGGSLRLSCAASGRIFYFYAMGWYRQAPGKERELVASISSGSSTNYADSVKGRFTISRDNAKNTVYLQMNSLKPEDTAVYYCAAQPWHGSRPRSYYWGQGTQVTVSS | high polyreactivity |
| QVQLVESVGGLVQAGGSLRLSCAASGRILRTNALGWYRKAPGKERELVAAISSDGSTYYADSVKGRFTISRDNAKNTVYLQMNSLKPEDTAVYYCAARLFYRGPRFDYWGQGTQVTVSS | low polyreactivity |
| QVQLVESVGGLVQAGGSLRLSCAASGRIYAMGLYRPAPGKERELVAAISRGGSTYYADSVKGRFTISRDNAKNTVYLQMNSLKPEDSAVYYCARRYASTGYDYWGQGTQVTESS | high polyreactivity |
| QVQLVESVGGLVQAGGSLRLSCAASGRTFKFYAMGWYRQAPGKERELVAAISSSGGRTYYADSVKGRFTISRDIAKNTVYLQMNSLKPVDTAVYYCARSSDYYFFGHYYWGQGTQVTVSS | high polyreactivity |
| QVQLVESVGGLVQAGGSLRLSCAASGRTFWYYSMGWDREAPGKERELVAAITSGGSTNYADSVKGRFTISRDNAKNTVYLQIYSLKPEDTAVYYCDTDNPVFEYYYWGQGTQVTVSS | low polyreactivity |
| QVQLVESVGGLVQAGGSLRLSCAASGRTFYGYAMGWYRKAPGKERELVAAISTGGGRTYYADSVKGRFTISRDNAKNTVYLQMNSLKPEDTAVYYCAARRAYPHYRVDYWGQGTQVTVSS | high polyreactivity |
| QVQLVESVGGLVQAGGSLRLSCAASGRTLGKYAMGWYIQAPGKERELVAAIRWTGTSTYYADSVKGRFTISRDNAKNTVYLQMNSLKPEDTAVYYCAKGTVHSRPDFGRGWYRWDDYWGQGTQVTVSS | high polyreactivity |
| QVQLVESVGGLVQAGGSLRLSCAASGSIFDVNAMGWYRQAPGKERELVAAITSSGGSTYYADSVKGRFTISRDNAKNTVYLQMNSLKPEDTAVYYCAAYSLYTMYWGQGTQVTVSS | low polyreactivity |
| QVQLVESVGGLVQAGGSLRLSCAASGSIFFNYTMGWYRQAPGKERELVAAINSSGGRTNYADSVKGRFTISRDNAKNTVYLQMNSLKPEDTAVYYCAAVYYDVWYVYWGQGTQVTVSS | low polyreactivity |
| QVQLVESVGGLVQAGGSLRLSCAASGSIFNRYAMGRYRQAPGKERELVAAISTHTGTTYYADSVKGRFTISRDNAKNTVYLQMNSLKPEDTAVYYCAKRSRYGYGKSYDYWGQGTQVTVSS | high polyreactivity |
| QVQLVESVGGLVQAGGSLRLSCAASGSIFRSYAMGWYRQAPGKERELVAAISWSGASTYYADSVKGRFTISRDNAKNTVYLQMNSLKPEDTAVYYCAARPRYWRWYSGDYWGQGTQVTVSS | high polyreactivity |
| QVQLVESVGGLVQAGGSLRLSCAASGSIFYGYAMGWYRQAAGKEREFVAAITFSATSTYYADSVKGRFTISRDNAKNTVYLQMNSLKPEVTAVYYCNASHVSHYRARDYWGQGTQVTVSS | low polyreactivity |
| QVQLVESVGGLVQAGGSLRLSCAASGSIIYHYPMGWYRHAPGKEAELVAAIYTTAGDTYYADSVKGRFTISRDNAKNTVYLQMNCLKPEDTAVYYCNASSSYFYYVRYDHWGQGTQVTVSS | low polyreactivity |
| QVQLVESVGGLVQAGGSLRLSCAASGSILQHYAMGWYRQAPGKETELVASISWTGGSTYYADSVKGRFTISRDNAKNTVYLQMNCLKPEDTAVYYCAARRYRYYSRGSWGQGTQVTVSS | high polyreactivity |
| QVQLVESVGGLVQAGGSLRLSCAASGSISIRNAMGWYRQAPGKERELVAAITYSGGSTYYADSVKGRFTISRDNAKNTVYLQMNSLKPEDTAVYYCNKDTYLATYLYDYWGQGTQVTVSS | low polyreactivity |
| QVQLVESVGGLVQAGGSLRLSCAASGSNFKYYAMGWYRQAPGKERELVAAITIGGNTNYADSVKGRFTISRDNAKNTVYLQMNSLKPEDTAVYYCATGGYYSAIVYGGYDYWGQGTQVTVSS | low polyreactivity |
| QVQLVESVGGLVQAGGSLRLSCAASGSTFALNAMGWYRQAPGKERELVAAISYSGGSTYYADSVKGRFTISRDNAKNTVYLQINSLKPDDTAVYYCNAEVYFSGWVLYYYWGQGTQVTVSS | high polyreactivity |
| QVQLVESVGGLVQAGGSLRLSCAASGSTFGHNAMGWYRQAPGKERELVAVITSGGSTYYADSVKGRFTISRDNAKNTVYLQMNSLKPEDTAVYYCAKRYWSRGSKSSPYAYDYWGQGTQVTVSS | high polyreactivity |

| Sequence | polyreactivity (PSR sort gate) |
| --- | --- |
| QVQLVESVGGLVQAGGSLRLSCAASGSTFLRYAMGWYRQAPGKERELVAAITASGGSTYYADSVKGRFTISRDNAKKSVYLQMNSLKPEDTAVYYCAADGRYIGKNSHDLWIYGYYYWGQGTQVTVSS | low polyreactivity |
| QVQLVESVGGLVQAGGSLRLSCAASGSTFSSYAMGWYRTAPGKERELVAALTASGGSTYYADSVKGRFTISRDNAKNTVYLQMNSLKPEDTAVYYCAAADVIFWLYYYWVQGTQVTVSS | low polyreactivity |
| QVQLVESVGGLVQAGGSLRLSCAASGSTFVIYAMGWYRQAHGKERELVAAISGRTGSTYYADSVKGRFTISRDNAKNTVYLQMNSLKPEDTAVYYCAAYKRSGLKYGHWGQGTQVTVSS | high polyreactivity |
| QVQLVESVGGLVQAGGSLRLSCAASGSTFVRYTMGWYRQAPGKERALVAAISWNGGRTYYADSVKGRFTISRDNTKNTVYLQMNSLKPEDTAVYYCNAVRLVYTGNSDYGYWGQGTQVTVSS | high polyreactivity |
| QVQLVESVGGLVQAGGSLRLSCAASGSTFWFYTMGWYRQAPGKERELVATITSGGSTNYADSVKGRFTISRDNAKNTVYLQMNSLKPEDTAVYYCAASSVLTNHDYWGQGTQVTVSS | low polyreactivity |
| QVQLVESVGGLVQAGGSLRLSCAASGSTFYHYAMGWYRQAPGKVRELVASISHSGGRTFYADSVKGRFTISRDNAMNTVYLQMNSLKPEDTAVYYCAADWRTRYDYWGQGTQVTVSS | low polyreactivity |
| QVQLVESVGGLVQAGGSLRLSCAASGSTFYPNAMGLYRQAPGKESELVAAITSGGSTYYADSVKGRFTISRDNAKNTVYLQMNTLKPEDTAVYYCAAQRRYHLDTTIGPGNYYYWGQGTQVTVSS | low polyreactivity |
| QVQLVESVGGLVQAGGSLRLSCAASGSTIDGYAMGWYRQAPGKEREFVAAISFSSASTYYADSVKGRFTISRDNAKNTVYLQMNSLKPEDTAVYYCNADFFDSGGSIEYDSWGQGTQVTVSS | low polyreactivity |
| QVQLVESVGGLVQAGGSLRLSCAASGTFSPYAMGWYRQAPGKERELVAVITSNTGRTYADSVKGRFTISRDNAKNSVYLQMNSLKPEDTAVYYCAARSTYRHWYRTGSRFDYWGQGTQVTVSS | low polyreactivity |
| QVQLVESVGGLVQAGGSLRLSCAATRSIFKIMRWYRQAPGKERELVAAISSSVGNTYYADSVKGRFTISRDNAKNTVYLQMNSLKPEDTAVYYCAAQSKYYQYYSWGQGTQVTVSS | high polyreactivity |
| QVQLVESVGGLVQAGGSLRLSCASSGNIFGAYAMGWYRQAPGKERELVAAIDSGSTNYADSVKGRFTISRDNAKNTVSLQMNSLKPEDTAVYYCNTKDQDVKVHHTSNTDDYWGQGTQVTVSS | low polyreactivity |
| QVQLVESVGGLVQAGGSLRLSCDASGSTFTSYTMGWYRPAPGKERELVAAISRSDGDRTYYADSVKGRFTISRDNAKNTVYLQMNSLKPEDTAVYYCAAEVTPRIVRYYYWGQGTQVTVSS | high polyreactivity |
| QVQLVESVGGLVQAGGSLRLSCPASGITFEQYAMGWYRQAPGKEREWVAAISSNGGITFYADSVKGRFTISRDNAKNTVYLQMNSLKPEDTAVYYCAARLCVTYPYIAYDYWGQGTQVTVSS | high polyreactivity |
| QVQLVESVGGLVQAGGSLRLSCPASGSIFGPYAMGWYRQAPGKERELVAAMTIGGDNTYYADSVKGRFTISRDNAKNTVYLQMNSLKPEDTAVYYCAAKYYGGKPHYYEYYYWGQGTQVTVSS | low polyreactivity |
| QVQLVESVGGLVQAGGSLRLSFAASGRTFVWYVMGWYSQAPVKERELVAAISLRGGTTYYADSVKGRFTISRDNAKNTVYLQMNSLKPEDTAVYYCAIAGIRHVTSKFKGYHFGYWGQGTQVTVSS | low polyreactivity |
| QVQLVESVGGLVQAGGSLRLSSAASGRIFSYKVMGWYRQAPGKESELVAAITSNDGSTYYADSVKGRFTISRDNAKNTVYLQMNSLKPVDTADYYCNADYGPVSLNEPFRDDYWGQGTQVTVSS | low polyreactivity |
| QVQLVESVGGLVQAGGSLRLSSAASGRILGYYAMGWYRQAPGKERELVAAISRACSTNYADSVKGRFTISRDNAKNTVYLQMNSLKPEDTAVYYCAARPYRRGYNYWGQGSQVTVSS | high polyreactivity |
| QVQLVESVGGLVQAGGSLRLTCAASGSIFYVYAMGWYRQAPGKERELVANIRDGGITYADSVKGRFTISRDNAKNTVYLQMNSLKPEDTAVYYCARDDTSPGYGDQSSNAAYYYRGQGTQVTVSS | low polyreactivity |
| QVQLVESVGGLVQAGGSLRLTCAASGSTFWLNDMGWYRQATGKERELVAAISFSGASTYYADSVKGRFTISRDNAKNTVYLQMNILKPEDTAVYYCNAGWGRAEFLSEAVFDSRMYYWGQGTQVTVSS | low polyreactivity |
| QVQLVESVGGLVQEGGSLRLSSAATGYTFDVYAMGWSRQAPGKERELVAAISTRGTRTYYADSEKGRFTISRDNAKNTVYLQMNSLKPEDTAVYYCAAYVYDGETESRFDYWGQGTQVTVSS | high polyreactivity |
| QVQLVESVGVLVQAGGSLRLSCAASGLIIDGYAMGWYRQAPGKERELVATITVSGTSTYYADSVKGRFTISRDNEKNTVYLQMNSLIPEDTAVYYCATDRNYGYYFVEYDHDYWGQGTQVTVSS | low polyreactivity |

Reference: the nanobody polyreactivity screen of Harvey et al. (2022)
